The results in this text go back to paper PMC8986121.

In one data set the target is Glu59. The data set is described as follows: NMR. Conditions: 300 K, not stated (50 mM phosphate buffers), 50 mM phosphate buffers at different pH, micelle-bound.
Another data set has as its target Glu49. The experiment in a line: NMR. As to conditions: 300 K, not stated (50 mM phosphate buffers), 50 mM phosphate buffers at different pH, micelle-bound.
Setting [1] is: L2 peptide free (no L1 or M peptide).
The mark [2] stands for this setting: L2 peptide in the presence of the GldL TMH1 (L1) and GldM TMH (M) peptides at 1:1:1 molar ratio.

B1: GldL TMH2 peptide (L2), transmembrane helix 2 of gliding motility / T9SS motor protein GldL (Flavobacterium johnsoniae) (peptide)
chain: KKVMLSIGLLTEALIFALSAFEPVKK
For B1, the pKa (as a rule, the pH at which an ionisable group is half protonated) with Glu59 (setting [1]) worked out at 5.65 ± 0.13; with Glu59 (setting [2]) it was 5.83 ± 0.02; in the data set with Glu49 (setting [1]), 5.54 ± 0.04; with Glu49 (setting [2]), 5.83 ± 0.02.
